Data from the DeepSol protein solubility set.

Assay: soluble on expression in E. coli; label from the status in PepcDB or PDB records

Row | Sequence | soluble on expression in E. coli
1 | MSLGEAEARVVLNMNTGWAFHRGEVESGGQPGLDDSGWIAAIIPHIMQLEKKHCGGDIIYDGVGWYRRTFRVPSQYKDKQIKISFEGVMNACEVYLNGQKISAHRGGYVGFVTDITTRINWDRDNLLAVRVSAEYDPLTPPGKPQAGMDFYYYSGIYRDVEMVISDPLHITHALEEEEVAGGGIFVTYPVVGKEKAVTHVKAHVRNEGKRKRKAQLRTQLIDKSGKIVACQLTPFRLSAGEAIHLEQNLEIVHPSLWHPYDPNLYTLQNEIVENGKVVDCHTESIGIRTIAYTRDGGFYINGESLYLRGANRHQAFAHIGDAAANSMQERDVIDLKRGGCNAVRAAHYPQDPAFLAACDKYGLLVVECIPGWQYFKNDSTFISRLYEVGKQMIRRDRNHPSVILWETALNESRYPAEIARNLYAIAHIEYPGDQMYTAGDYFGHADRVDCFDVFYKQVSRFPKDGDVMSNYPEDQIAVKPLFCREWGDGVGEKPRVSLMENEEEQLKQCRGRFLQLNGHGYFDWCMLDANPRMGGHFLWSYNDYARGAEQETMFCGIVDINRYPKFSYYMMQSMRDKEISQPGLYDGPMVFIASQNTASRYVSSVNEITVFSNCDEVRLFRNHHLIGKQMRKERTPLYRSIVEKGGSPCYVFNAGTYEAGELVAEGIVDGKVVATHSVRTPEQPRQVKIWLKEENIQPVADGSDMIPVYFKVCDSNGTLVNTSDVRIHISVSGEGSLIGDGIERIGINPQLVEGGVGYALIRTTCRPGKIHISVTADGLRGDTREIVTRRYDGEGHHHHHH | not soluble
2 | MSYYHHHHHHLESTSLYKKALAYTLPQLPYAYDALEPHIDARTMEIHHTKHHQTYVDNANKALEGTEFADLPVEQLIQQLDRVPADKKGALRNNAGGHANHSMFWQIMGQGQGQNGANQPSGELLDAINSAFGSFDAFKQKFEDAAKTRFGSGWAWLVVKDGKLDVVSTANQDNPLMGEAIAGVSGTPILGVDVWEHAYYLNYQNRRPDYLAAFWNVVNWDEVSKRYAAAK | soluble
3 | MGNKLFVLDLGEIRVDENFIIANSTFVTPQKPTVSSRLIDIPVSAYLIQCTDATVLYDTGCHPECMGTNGRWPAQSQLNAPYIGASECNLPERLRQLGLSPDDISTVVLSHLHNDHAGCVEYFGKSRLIAHEDEFATAVRYFATGDHSSPYIVKDIEAWLATPRNWDLVGRDERERELAPGVNLLNFGTGHASGMLGLAVRLEKQPGFLLVSDACYTATNYGPPARRAGVLHDTIGYDRTVSHIRQYAESRSLTVLFGHDREQFASLIKSTDGFYE | soluble
4 | SKKVIVIAGTTGVGKSQLSIQLAQKFNGEVINSDSMQVYKDIPIITNKHPLQEREGIPHHVMNHVDWSEEYYSHRFETECMNAIEDIHRRGKIPIVVGGTHYYLQTLFNKRVDTKSSERKLTRKQLDILESTDPDVIYNTLVKCDPDIATKYHPNDYRRVQRMLEIYYKTGKKPSETFNEQKITLKFDTLFLWLYSKPEPLFQRLDDRVDDMLERGALQEIKQLYEYYSQNKFTPEQCENGVWQVIGFKEFLPWLTGKTDDNTVKLEDCIERMKTRTRQYAKRQVKWIKKMLIPDIKGDIYLLDATDLSQWDTNASQRAIAISNDFISNRPIKQERAPKALEELLSKGETTMKKLDDWTHYTCNVCRNADGKNVVAIGEKYWKIHLGSRRHKSNLKRNTRQADFEKWKI | soluble
5 | GPGSMDIDSPYKILGIPQSASVADIRAAFRRLALTTHPDKQGSNTSGGEAQMMLYSSHPFYVIKEASDILLDPVRRAEYDEGQQRMYARSIGVVSDVHDISDFRLVEERKALCSEDRVCGDVTIQVYEMECRCGGAFEIFLVKGEEGNMDKLCGCDSCSLIVSVRRQTQQ | soluble
6 | MAKAAKRFRTPSTTRVLYVRHAHAHGRQTWGGDDNKRPLDKKGRRQAEMLVPMLLPFKPTAIYSAVPDRCQATALPLADELGLDVSVNRLFGDDAWETDPEACKKRFTDVVAQGGVPMIVGQGDIIPEMIKWFSENGTLPIDEKIKAKKGSVWVLSFHDGVFTGADYLEHHHHHH | not soluble
7 | MADDLGDEWWTQGDNSDVPEVEEETEHAEEKQPIKSTPKKRKVEKQIPDATKKKKATVKKECFITQERSEEKPDNESNKNKKRRKKKKTITDVLTSSKPVPGSPVDLVSLLKTYHSQTRSVIEQEELTLQDSCFLSCNDLTHSLSSYLKEVCPKWAKMQKQHTQTSSVVLLIVCGSALRTIDLIKQLVTFKGQAKVLKLFAKHIKVEEQIKSLSKGVTHIAVGTPGRICALLEKEGLTVQGLRYLVLDWNYRDQKQRRMVDVPEVKGDLLKMMDQGLIQSCREGTVKIGLF | not soluble
8 | MGSDKIHHHHHHMTSKPSTSDGRAHSISHVPGTHMRGTSASHSPRPFRPCADCTCSPGLLSRQGRRASLFLRQLENSRRSSSMLLNELKGAGGGSSAGNGSVYSCDSLCAVNREVNTTDRLLKLRQEMKKHDLCCYIVPSCDEHQSEYVSLRDQRRAFISGFSGSAGVACITRDLLNFNDDHPDGKSILSTDGRYFNQARQELDYNWTLLRQNEDPITWQEWCVREALEMAKGLGNKEGMVLKIGIDPKLITFNDYVSFRKMIDTKYDAKGKVELVPVEENLVDSIWPDFETLPERPCNDLLLLKYEFHGEEFKDKKEKLLKKLNDKASSATTGRNTFIVVALDEICWLLNLRGSDIDYNPVFFSYVAINEDETILFTNNPFNDDISEYFKINGIEVRPYEQIWEHLTKITSQASSAEHEFLIPDSASWQMVRCLNTSTNANGAIAKKMTAQNFAIIHSPIDVLKSIKNDIEIKNAHKAQVKDAVCLVQYFAWLEQQLVGREALIDEYRAAEKLTEIRKTQRNFMGNSFETISSTGSNAAIIHYSPPVENSSMIDPTKIYLCDSGSQFLEGTTDITRTIHLTKPTKEEMDNYTLVLKGGLALERLIFPENTPGFNIDAIARQFLWSRGLDYKHGTGHGIGSFLNVHEGPMGVGFRPHLMNFPLRAGNIISNEPGYYKDGEYGIRIESDMLIKKATEKGNFLKFENMTVVPYCRKLINTKLLNEEEKTQINEYHARVWRTIVHFLQPQSISYKWLKRETSPL | not soluble
9 | AHHHHHHGSRIVAITDIHGRRSMVEKLVDVVRREDVDVILIAGDITHFSGAEEAERVLSPLLTLEIPLLAVMGNCDGRDVLDFLEERGVSVHDKRVEIKGVGVVGFGGSNITPFSTIWEFSDDVIYSSLIRNYRQGDIVLTHAPPYGTKLDKTHSGIHAGSMGLRKFIEEKQPKLCICGHIHEGRGVEKIGNTIVVNPGPLARGYYAVIEGDSVELLNLKG | soluble
10 | MKSMEIDVEHIFDCLDRYGKGELTEKQLTKGVTDDEKMFLIMHQGLLGGNTDSEEEFNVLDWLGEEESFFMIVEINENLCRKAESILEEIGVEMPDVIESFLKQLVETKQLPVVVND | not soluble
11 | MGSDKIHHHHHHMPINSYENYVLSWRPVKERLTRPYYQSLVQQLEADILSGALQKNVKLPSQRELADYLDLNFTTIGQAYKHAMEKGLLYTNIGCGTFVSPNAFHSITISTNQVADHLIDLGLVSSFDMCNQRILPFIESVSKNAALNSLLNYRDPLGTHFQRATAAEWLQTQGVRTNAEEVAIVSGVQNGLAVTLAAAFSPGQRIAVDRYTYSNFIELAQLYHLEIVPIGYDSEGMDPEHLLQECKKKKIHGIFLMPACNNPIGFQMSSARRMTLAEIIQQEHLWVIEDDIHSFLTTYAQQAVLPTFQELLPQQTIYLAGMTKFVCTGLRIAYLVFPPLLRQEIERAIFNINVKTSGFDAEIVTQVLRSPVAKELVIEKLALTKQANDLFDTIFGLARPSNPLPYYRTIPLSTEKTAPQIEQEFLQNGVRLFHSSRFTVQNQPDAFLRISLASNQLEVLAKGLTIIQELLPTLNEKKGHSL | not soluble
12 | MGSSHHHHHHSSGLVPRGSHMARQNLKSTDRAVQQMLDKAKREGIQTVWDRYEAMKPQCGFGETGLCCRHCLQGPCRINPFGDEPKVGICGATAEVIVARGLDRSIAAGAAGHSGHAKHLAHTLKKAVQGKAASYMIKDRTKLHSIAKRLGIPTEGQKDEDIALEVAKAALADFHEKDTPVLWVTTVLPPSRVKVLSAHGLIPAGIDHEIAEIMHRTSMGCDADAQNLLLGGLRCSLADLAGCYMGTDLADILFGTPAPVVTESNLGVLKADAVNVAVHGHNPVLSDIIVSVSKEMENEARAAGATGINVVGICCTGNEVLMRHGIPACTHSVSQEMAMITGALDAMILDYQCIQPSVATIAECTGTTVITTMEMSKITGATHVNFAEEAAVENAKQILRLAIDTFKRRKGKPVEIPNIKTKVVAGFSTEAIINALSKLNANDPLKPLIDNVVNGNIRGVCLFAGCNNVKVPQDQNFTTIARKLLKQNVLVVATGCGAGALMRHGFMDPANVDELCGDGLKAVLTAIGEANGLGGPLPPVLHMGSCVDNSRAVALVAALANRLGVDLDRLPVVASAAEAMHEKAVAIGTWAVTIGLPTHIGVLPPITGSLPVTQILTSSVKDITGGYFIVELDPETAADKLLAAINERRAGLGLPW | soluble
13 | ETDETLGEREIRRVLARSGEEGNIDASEVDMIERVFDLDDTVVREVMVPRPDVVSVPADATMSDIRAVVLDEGHTRYPVVDADDSDQIVGFIDVKDVLRAGEEGNENTTAGDIAHEIPVVPETTAINDLLLQFRQDRRQMAAVIDEWGSLEGIATIEDVVEAVVGDLRDEFDVDGREHAIRKQSDGSYDADGGV | not soluble
14 | MRDIQQVLERWGAWVANNHEDVTWSSIAAGFKGLIPSKVKSRPQCCDDDAMVICGCMARLNRNNNDLHDLLVDYYVFGMTFMTLARKHGCSDGYIGKKLQKAEGVVEGMLMMLGVRLEMDKYIEHP | not soluble
15 | MSLAIGDILRKSARRFPDRVALTDGGRSVTYTELERDANRFANALVARGLKPGAKISTVCNNSIEFVKALFGIHRAGLVWVPINTMLGPDDMGYILDHAGVKVAVIDDNLHGQPERRAALEARGIDLIAINLAGKAADTGLPVFDQLIEGLSEIEPDVAFDDRDLAMIIYTSGTTSRPKGAMHCHLAVTMAVMSNAIEMQLSRKDGITGQFPLFHCAAHVLLLSYLIVGGQMAIMRGFDPVACMEAIQRNKLTVFIGLPLMYQVILDHPRRKEFDLSSLRCCIYTMAPMPRPLLERAIAELCPTFVQPSGQTEMYPATTMSQPDRQLARFGNYWGESTLVNETAIMDDAGNLLPPGEVGEIVHRGPNVMLGYYKDPEATEAARKFGWHHTGDLALIDEHGEVLFLDRKKDMIKSGGENVASIKIEETLLAHPSVMNAAVVGLPHPQWGEAVSGFVKLKPGASATEAEIVEHCKKHLGGFQVPKLLRIVDEMPMTATGKLRKVELRNQFTDHFMLGQTEGHHHHHH | soluble
16 | RTHSGEKPYECYICHARFTQSGTMKMHILQKHTENVAKFHCPHCDTVIARKSDLGVHLRKQHSY | soluble
17 | MGSDKIHHHHHHMKRKIIQQLKLWKDNPARKPLILLGARQVGKTWVMKHFGQTEFENVAYINCDVEPLAKELFAADYSIPRILLTLQAITGTKIEAGKTLIVFDELQEVERGLHSLKYFQENAPEYHVMAAGSLLGITLGKGQSFPVGKVNVMHLYPMDFEEFLMAAGETDLCDLLHQPDWEILKILSLKYVDLLRQYYYVGGMPEVVDCFFQHQNLQEVRDKQTEILDAYRRDISKHTTATESIRIGQVLQSLPSQLAKENKKFIYNVLKKGARATEYELAIQWLMDAGLVHKVSRIKELQMPVKFYEDLGAFKLFLLDCGLLGCMTEAPASQMLVGDNVFKEFKGAFTEQFVLQQLVAQGFSPYYWSSDKTPAEIDFVVQTEHRVIPVEVKAEENVRARSMSEYIKNHPDYQLKGLRISMMGYQDQEWMENIPLFAITKFFG | not soluble
18 | MGSDKIHHHHHHMPGGGNGILYSNLAAVKEMKMNNLRVVIITGLSGSGKSTALRALEDIGFYCVDNMPVVLLPQFLEIQSDKSKDISQVAMVMDLREKSFIETYKGIFEQIKARGYKIEIVFLYATDDALLHRFSETRRVHPLSSVSIMEGIRLEREQLRALEEMADKVIDTTSCNVHQLKDIVQRHFLPSSTARRLFIHLISFGYRYGLPADADLVLDVRFLPNPYWVESLKSFNGHHQDVRRYVLSAEASSIFLQKLFDLMEFLIPLYEKEGKPRITIAVGCTGGKHRSVVMANELWSYFSGRDYPVNVNHRDVGKS | not soluble
